From publication PMC8761896 (2021)

B1: VRC01gl Fab with comL ('VQ' insertion at 103aL and 103bL, L104VL, E105DL) (Fab, V domains shown)
VH: not shown
VL: EIVLTQSPATLSLSPGERATLSCRASQSVSSYLAWYQQKPGQAPRLLIYDASNRATGIPARFSGSGSGTDFTLTISSLEPEDFAVYYCQQYEFFGQGTKVQVDI
B2: germline reverted VRC01 (VRC01gl) Fab (Fab, V domains shown)
VH: not shown
VL: EIVLTQSPATLSLSPGERATLSCRASQSVSSYLAWYQQKPGQAPRLLIYDASNRATGIPARFSGSGSGTDFTLTISSLEPEDFAVYYCQQYEFFGQGTKLEIK

Assays:
eOD-GT6 [1] = assay: SPR
eOD-GT6 [2] = assay: SPR; remark: listed apart in the source

Row | Binder | Kd (eOD-GT6 [1]) [nM] | koff (eOD-GT6 [2]) [s⁻¹]
1 | B1 | 16.4 | 0.000642
2 | B2 | 16.2 | 0.00073
